Patent publication US20260069689A1 (Regeneron, published 2026)
Positions count from the first letter of the chain named.

B1: mAb15159 (antibody, V domains shown)
VH: EVQLVESGGGLVQPGGSLRLSCAASGITVSSNYMTWVRQAPGKGLEWVSLIYSGGSTFYADSVRGRFTISRDNSKNTLYLQMNSLRAEDTAVYYCARDLVVYGMDVWGQGTTVTVSS
VL: DIQLTQSPSSLSASVGDRVTITCRASQGISSYLAWYQQKPGKAPKLLIYAASTLQSGVPSRFSGSGSGTDFTLTISSLQPEDFATYYCQHLNSDPHTFGQGTKLEIKR
B2: mAb15170 (antibody, V domains shown)
VH: B1 VH with S25T, T35S, R64K, D72H, N83S, V101D, Y102F
VL: B1 VL with S31N, A84G, H90Q, P95S, H96P, L104V
B3: mAb14312 (antibody, V domains shown)
VH: EVQLVESGGGLVQPGGSLRLSCAASGFTVSRSYMTWVRQAPGKGLEWVSVIFTGGRTDHADSVKGRFTISRHNSKNTLYLQMNSLRTEDTAVYYCARVAIVGATGAFDIWGQGTMVTVSS
VL: QSVLTQPPSVSGAPGQRVTISCTGSSSNIGAGDDVHWYQQLPGTAPKLLIYGNSNRPSGVPDRFSGSKSGTSASLAITGLQAEDEADYYCQSYDSSLSGSVVFGGGTKLTVLG
B4: mAb15150 (antibody, V domains shown)
VH: EVQLVETGGGLIQPGGSLRLSCAAPGFIVSSNYMSWVRQAPGKGLEWVSLLYPGGSTYYADSVKGRFTISRDNSKNTLYLQMNSLRADDTAVYYCARVLPIVEDHFDYWGQGTLVTVSS
VL: DIQLTQSPSFLSASVGDRVTITCRASQGMSSYLAWYQKKPGKAPKLLIYGATILQSGVPSRFSGSGSGTEFTLTISSLQPEDFATYYCQQLNSDPLYMYTFGQGTKLEIKR
B5: mAb15151 (antibody, V domains shown)
VH: QVQLVESGGGVVQPGRSLRLSCAASGFVFNSYGMHWVRQAPGKGLEWVAVLWYEGSKNYYADSVKGRFTISRDNSKNTLYLQMNSLRAEDTAVYYCARHGSGSFFGYYLDYWGQGTLVTVSS
VL: DIQMTQSPSSLSASVGDRVTITCRASHNINDFLNWYQQKPGKAPRLLIYAASSLQSGVPSRFSGSGSGTDFTLTISSLQPEDFATYYCQESYTTPPTFGQGTKLEIKR
B6: mAb15156 (antibody, V domains shown)
VH: QLQLQESGPGLVKSSETLSLTCTVSASITGSTYYWGWIRQPPGKGLEWIGSIYYSGTTYYKASLKSRVTISVDTSKNQFSLKLTSVTVADTAVYYCVSHLLGNYHKYGMDVWGQGTTVTVSS
VL: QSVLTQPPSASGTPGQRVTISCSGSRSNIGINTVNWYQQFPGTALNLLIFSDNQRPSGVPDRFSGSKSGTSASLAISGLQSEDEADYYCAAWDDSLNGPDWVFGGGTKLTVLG
B7: mAb15163 (antibody, V domains shown)
VH: EVQLVETGGGLIQPGESLRLSCAASGFIVSTNYMNWVRQAPGKGLEWVSVIYRGGSTYYADSVKGRFTISRDNSKNTLFLQMNSLRAEDTAVYYCARGHEDFDYDTPASGAFDIWGQGTMVTVSS
VL: QSALTQPPSASGSPGQSVTISCTGTSSDVGGHNYVSWYQQHPGKAPKVMIYEVSKRPSGVPDRFSGSKSGNTASLTVSGLQAEDEADYYCSSYAGSNKFVFGTGTKVTVLG
B8: mAb15160 (antibody, V domains shown)
VH: EVQLVESGGGLVQPGGSLRLSCSASGFTFSRYAMYWVRQAPGKGLEYVSAISSDGGSTYDADSVKGRFTISRANSKNTLYLQMSSLRAEDTAVYYCVKGLRELLYYYYGMDVWGQGTTVTVSS
VL: DIQMTQSPSSLSASVGDRVTITCRAGQSISSFLNWYQQKPGKAPKLLIYAASSLQSGVPSRFSGSGSGTDFTLTISSLQPEDFATYYCQQSYITPFTFGPGTKVDIKR
B9: mAb15164 (antibody, V domains shown)
VH: EVQLVESGGGLVQPGGSLRLSCAASGFAVSSNYMTWVRQAPGKGLEWVATIYSGDSTYYADSVKGRFTISRHNSKNTLSLQMNSLRADDTAIYYCARLSGVLSGTYNGAFDIWGQGTMVTVSS
VL: QSALTQPASVSGSPGQSITISCTGTSSDFGNYNIVSWYQQHPGQAPKVMIYEGNKRPSGVSNRFSGSKSGHTASLTISGLQAEDEADYYCSSYAGSSTWVFGGGTKLTVLG
B10: mAb15166 (antibody, V domains shown)
VH: EVQLVESGGGLVQPGGSLRLSCAASGFTVTSNYMSWVRQAPGKGLEWVSAIYSGESTYYADSVKGRFTISRDSSKNTLYLQMNSLRVEDTAVYYCASIHDYSNYVGGFDPWGQGTLVTVSS
VL: B9 VL with T25P, N31S, I34L, Q44K, V48L, N54T, H71N
B11: mAb15165 (antibody, V domains shown)
VH: EVQLVESGGGLVQPGGSLRLSCAASGFTVSSNYMSWVRQAPGKGLEWVSAIYSGDSTYYADSVKGRFTISKDNSKNTLYLQMNSLRGEDTAVYYCARLGGALQAYDGAFDYWGQGTLATVSS
VL: B9 VL with N31S, I34L, Q44K, V48L, N62I, H71N
B12: mAb15157 (antibody, V domains shown)
VH: EVQLVESGGALVQPGGSLRLSCAASGFPFTIYAMTWVRQAPGKGLEWVSVITGSGDSTYYADSVKGRFTISRDNSKNTLYLQMNSLRAEDTAVYYCVKTGEGFFYYYYGMDVWGQGTTVTVSS
VL: QSVLTQPPSVSAAPGQKVTISCSGSSSNIGNSYISWYQQLPGTAPKLLIYVNNKRPSGIPDRFSGSKSGTSATLGITGLQTGDEADYYCGTWDSSLSAGVFGSGTKVTVLG
B13: mAb15158 (antibody, V domains shown)
VH: EVQLVESGGGLVQPGGSLRLSCAASGFSFSSNWMSWVRQAPGKGLEWVGNINQDGSEKYYVDSVEGRFTISRDNAKKSLYLQMNSLRAEDTAVYYCARDLGVLWFGDFVDWGQGALVTVSS
VL: DIQMTQSPSSLSASVGDRVTITCRASQAISNSLAWYQQKPGKAPKLLLYAASTLESGVPSRFSGSGSGTDYTLTISSLQPEDFATYYCLQYYGSPRTFGQGTKVEIKR
B14: mAb15162 (antibody, V domains shown)
VH: EVQLVETGGGLIQPGGSLRLSCAASEFIVSRNYMSWVRQAPGKGLEWVSLIYSGGSTYYADSVKGRFTISRDNSKNILYLQMNSLRAEDTAVYYCARDRGGISDYWGQGTLVTVSS
VL: DIQMTQSPSSLSASVGDRVTITCQASQDINKYLNWFQQKPGKAPKLLIYDASNLETGVPSRFSGSGSGTDFTFTISSLQPEDIATYYCQQYDNLPRTFGQGTKLEIKR
B15: mAb15161 (antibody, V domains shown)
VH: EVQLVESGGGLVQPGGSLRLSCAASGFTFSSYEMNWVRQAPGKGLEWVSYISSSGSILYYADSVKGRFTASRDNAKNSLYLQMNSLRAEDTGVYYCARREYQLLRPFEFWGQGTLVTVSS
VL: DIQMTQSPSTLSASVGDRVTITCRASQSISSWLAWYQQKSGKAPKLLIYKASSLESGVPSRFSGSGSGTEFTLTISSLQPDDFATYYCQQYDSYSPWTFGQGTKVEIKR
B16: mAb14284 (antibody, V domains shown)
VH: QITLKESGPTLVKPTQTLTLTCTFSGFSFSTSGVGVGWIRQPPGKTLEWLALIYWDDDKRYSPSLKSRLTITKDTSKNQVVLTMTNMDPVDTATYFCAHHGIPTIFGYWGQGALVTVSS
VL: QSALTQPASVSGSPGQSITISCTGTSSDLGVFNYVSWYQQHPGKAPKLMIYEVTNRPSGVSNRFSGSKSGNTASLTISGLQAEDEADYYCSSYTTSSTVFGGGTKLTVLG

What was measured:
[1] = target: T1, SARS-CoV2 Spike ecto foldon Trimer expressed with a C-terminal myc-myc-hexahistidine (SARS-CoV-2, UniProt P0DTC2 14-1213); assay: SPR Biacore, mAb captured by anti-hFc, 25C
T1 construct: extracellular domain

[2] = target: T1, SARS-CoV2 Spike ecto foldon Trimer …; assay: SPR Biacore, mAb captured by anti-hFc, 37C

| Binder | Kd [1] [nM] | koff [1] [s⁻¹] | kon [1] [M⁻¹ s⁻¹] | t½ [1] [h] | Kd [2] [nM] | koff [2] [s⁻¹] | kon [2] [M⁻¹ s⁻¹] | t½ [2] [h] |
| --- | --- | --- | --- | --- | --- | --- | --- | --- |
| B1 | 0.231 | 2.02e-05 | 87500 | 9.53 | 0.0686 | 3.22e-05 | 467000 | 5.99 |
| B2 | 0.11 | 1.29e-05 | 120000 | 14.9 | 0.0118 | 1e-05 | 846000 | 19.2 |
| B3 | 0.0272 | 5.24e-05 | 1.93e+06 | 3.67 | 0.0563 | 5.44e-05 | 966000 | 3.54 |
| B4 | ≤ 0.0315 | ≤ 1e-05 | 317000 | 19.2 | 0.0202 | 3.42e-05 | 1.68e+06 | 5.63 |
| B5 | 0.187 | 6.26e-05 | 335000 | 3.08 | 0.129 | 0.000248 | 1.92e+06 | 0.777 |
| B6 | 0.193 | 6.61e-05 | 342000 | 2.91 | 0.112 | 0.000212 | 1.89e+06 | 0.908 |
| B7 | 0.0562 | 1.15e-05 | 214000 | 16.7 | 0.0364 | 4.85e-05 | 1.35e+06 | 3.97 |
| B8 | 0.102 | 3.1e-05 | 304000 | 6.21 | 0.132 | 0.000167 | 1.26e+06 | 1.15 |
| B9 | 0.0865 | 2.58e-05 | 298000 | 7.47 | 0.0777 | 0.000138 | 1.78e+06 | 1.4 |
| B10 | 0.63 | 0.000174 | 276000 | 1.1 | 0.054 | 8.32e-05 | 1.54e+06 | 2.31 |
| B11 | 0.0279 | 1.09e-05 | 391000 | 17.6 | 0.0542 | 0.000115 | 2.12e+06 | 1.67 |
| B12 | 0.308 | 9.28e-05 | 302000 | 2.08 | 0.141 | 0.00024 | 1.7e+06 | 0.803 |
| B13 | 0.153 | 1.4e-05 | 91500 | 13.8 | 0.0541 | 4.07e-05 | 758000 | 4.73 |
| B14 | 0.648 | 6.79e-05 | 105000 | 2.83 | 0.425 | 0.000187 | 440000 | 1.03 |
| B15 | 0.049 | 1.38e-05 | 280000 | 14 | 0.0616 | 9.14e-05 | 1.48e+06 | 2.11 |
| B16 | 0.0161 | 1.31e-05 | 812000 | 14.7 | 0.0251 | 2.05e-05 | 814000 | 9.41 |
